These are literature values, as cited in paper PMC12020373.

In data set [1] the test system is Cys210.
Data set [2] has as its target Cys32 (UniProt position 32, FSATWCGPCKM).
The target in data set [3] is His43 (UniProt position 43, IKPFFHSLSEK).
Data set [4] concerns the target Cys283 (UniProt position 283, GYVLTCPSNLG).
Data set [5] addresses Cys124 (UniProt position 125, HPGDFCADAQG).
For data set [6], the target named is Cys25 (UniProt position 157, GSCGSCWAFSA).
Data set [7] has as its target Cys88 (UniProt position 88, ADGSICLDILQ).
Data set [8] concerns Cys28.
The target of data set [9] is Cys46 (UniProt position 47, DFTFVCPTELG).
The target in data set [10] is Cys46 (UniProt position 47, TERPGCLDFKG).
Data set [11] has as its target Cys106 (UniProt position 106, LIAAICAGPTA).
Data set [12] has as its target Cys65 (UniProt position 66, ELKGTCKEDAM).
The target of data set [13] is His81 (UniProt position 82, LKKKGHHEAEL).
Data set [14] has as its target His36 (UniProt position 37, RLFKSHPETLE).
Data set [15] concerns the target His12 (UniProt position 13, WQLVLHVWAKV).
Data set [16] concerns the target His116 (UniProt position 117, IIHVLHSRHPG).
In data set [17] the target is His113 (UniProt position 114, SEAIIHVLHSR).
Data set [18] has as its target His48 (UniProt position 49, FDRFKHLKTEA).
The subject of data set [19] is Cys35.
Data set [20] addresses His31 (UniProt position 31, TIGIGHLLTKS).
Data set [21] addresses Cys126 (UniProt position 127, GDFGACAQGAM).
Data set [22] deals with Cys36 (UniProt position 37, YKQATCGDINT).
The target in data set [23] is His8 (UniProt position 90, STKKLHKEPAT).
In data set [24] the target is His46 (UniProt position 128, TPETKHPKKGV).
Data set [25] deals with Cys283 (UniProt position 283, GYVLTCPANLG).
The target in data set [26] is His127 (UniProt position 127, KGHAGHPENER).
Data set [27] concerns the target His83 (UniProt position 83, ITQWIHNWKKR).
The target of data set [28] is His124 (UniProt position 124, EWVKGHAGHPE).
Data set [29] concerns the target His62 (UniProt position 62, EALKEHCEVIL).
In data set [30] the target is Cys40 (UniProt position 40, FSASWCPPCRG).
The target in data set [31] is Cys215 (UniProt position 215, PVVVHCSAGIG).
The target in data set [32] is Cys125 (UniProt position 126, PGDFGCDAQGA).
Data set [33] concerns the target Cys78 (UniProt position 79, YIDKVCELKKK).
Data set [34] deals with Cys85.
Data set [35] deals with Cys25 (UniProt position 158, GSCGSCWAFSA).
The target in data set [36] is His36 (UniProt position 37, RLFTGHPETLE).
Data set [37] addresses His116 (UniProt position 117, IIHVLHSKHPG).
Data set [38] addresses His113 (UniProt position 114, SDAIIHVLHSK).
In data set [39] the target is His119 (UniProt position 120, VLHSKHPGDFG).
Data set [40] has as its system Cys51.
Data set [41] concerns the target Cys32 (UniProt position 33, FWAEWCGPCKM).
Data set [42] addresses Cys17 (UniProt position 18, VKHLKCKPADE).
The target of data set [43] is Cys403 (UniProt position 403, RPVIHCRAGVG).
The target in data set [44] is Cys29 (UniProt position 108, GSCGSCWAFGA).
In data set [45] the target is Cys145 (UniProt position 145, PILIPCHRVVC).

As for alpha1-antitrypsin (Homo sapiens), the pKa in data set [1] is listed as 6.9. In the case of thioredoxin (Homo sapiens), the pKa in [2] is on record as 6.3; in data set [3], 5.5. muscle creatine kinase (Homo sapiens): the pKa in [4] was 5.6.

Consider “myoglobin G124C (Physeter macrocephalus (sperm whale); G124C)”, for which the pKa in [5] was 6.5. As for “caricain (papaya protease omega) (Carica papaya)”, the pKa in data set [6] is 2.9. Take “ubiquitin-conjugating enzyme E2 (PDB 1JAS; HsUbc2b) (Homo sapiens (inferred))”: in data set [7], the pKa is reported as 10.2. On to “thiol:disulfide interchange protein DsbA (Escherichia coli (inferred))”, for which, in data set [8], the pKa is listed as 3.3.

“alkyl hydroperoxide reductase C (peroxiredoxin AhpC) (Salmonella enterica serovar Typhimurium (inferred; article says only 'bacterial'))”: the pKa in [9] is listed as 5.9. Turning to “acyl-CoA-binding protein (PDB 1NTI) M46C (Bos taurus (inferred); M46C)”, the pKa in data set [10] was 8.2. In the case of DJ-1 (PARK7) (Homo sapiens), the pKa in data set [11] is reported as 5.4. As for “acyl-CoA-binding protein (PDB 1NTI) S65C (Bos taurus (inferred); S65C)”, the pKa in data set [12] is recorded as 9.0. Turning to “myoglobin (PDB 1A6K) (Physeter macrocephalus (sperm whale; inferred))”, the pKa in data set [13] was 6.88; in data set [14], 7.98; in data set [15], 6.49; in data set [16], 6.70; in data set [17], 5.51; in [18], 5.55. Take “thiol-disulfide oxidoreductase ResA (Bacillus subtilis (inferred))”: the pKa in data set [19] is on record as 8.8. In the case of “T4 lysozyme (PDB 2LZM) (Enterobacteria phage T4 (inferred))”, the pKa in data set [20] was 9.1. For the substance “myoglobin D126C (Physeter macrocephalus (sperm whale); D126C)”, the pKa in data set [21] was 8.1.

In the case of “acyl-CoA-binding protein (PDB 1NTI) V36C (Bos taurus (inferred); V36C)”, the pKa in [22] is 9.5. Consider “staphylococcal nuclease (PDB 1EY0) (Staphylococcus aureus (inferred))”, for which the values for the pKa in data set [23] and in data set [24] were 6.52 and 5.86, respectively.

On to “muscle creatine kinase S285A (Homo sapiens; S285A)”, for which, in data set [25], the pKa is 6.7. With ribonuclease HI (Escherichia coli), the pKa is 7.9 in data set [26], 5.5 in [27], 7.1 in data set [28] and 7.0 in data set [29]. “tryparedoxin (Trypanosoma brucei (inferred from PDB 1O73))”: in data set [30], the pKa was 7.2. With “protein-tyrosine phosphatase 1B / PTP1 (Homo sapiens for the listed structure; the pKa source title says only 'mammalian' PTP1)”, the pKa in [31] is reported as 5.6. Consider “myoglobin A125C (Physeter macrocephalus (sperm whale); A125C)”, for which the pKa in data set [32] is 8.4. Turning to “acyl-CoA-binding protein (PDB 1NTI) E78C (Bos taurus (inferred); E78C)”, in [33], the pKa is given as 9.6. Take “ubiquitin-conjugating enzyme UbcH10 (Homo sapiens)”: the pKa in [34] is reported as 10.9. For papain (Carica papaya), in data set [35], the pKa was 3.3. As for “myoglobin (PDB 1DWR) (Equus caballus (horse; inferred))”, the pKa is recorded as 7.8 in data set [36]; 6.94 in data set [13]; 6.79 in data set [37]; 5.87 in data set [38]; 6.56 in data set [39]. Turning to “methionine sulfoxide reductase A (MsrA) (Mus musculus)”, the pKa in [40] is 7.2. With thioredoxin (Escherichia coli), the pKa in [41] is reported as 7.3. In the case of “acyl-CoA-binding protein (PDB 1NTI) T17C (Bos taurus (inferred); T17C)”, in data set [42], the pKa is 9.8.

For the substance “protein tyrosine phosphatase YopH (Yersinia (species not stated; Y. enterocolitica for 1YPT to my knowledge))”, in data set [43], the pKa is 4.7.

As to cathepsin B (Rattus norvegicus), the pKa in [44] is 3.6. On to “methionine sulfoxide reductase A E115Q (Mus musculus; E115Q)”, for which, in [40], the pKa is reported as 8.2. For the substance “O6-alkylguanine-DNA alkyltransferase (AGT/MGMT) (Homo sapiens)”, in data set [45], the pKa is listed as 5.3.

For the substance “ubiquitin-conjugating enzyme Ubc13 (PDB 1JBB) (Saccharomyces cerevisiae (inferred))”, the pKa in data set [34] is recorded as 11.1.
